Values quoted from earlier work as cited in PMC6515277.
Read-outs that look alike come from different tables or passages of the source.

How the values were obtained:
[1] = molecular target: merlin CTD CTD (Homo sapiens) (UniProt P35240); experiment: ITC
[2] = molecular target: merlin CTD CTD (Homo sapiens) (UniProt P35240); experiment: ITC; remark: listed apart in the source

Kd [1]: 4 µM
Kd [2]: 4 µM
Substance: merlin FERM FERM (from UniProt P35240)
